B1: SETD8 (parent)
chain: KKAQGKTQQNRKLTDFYPVRRSSR

Variants of: B1
Assay: protein stability index of a GFP-peptide fusion (GPS, HEK-293T) (PSI 1-6); higher = more stable
Conditions: c terminus: a fixed tail appended
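Note: lentivirally expressed fusions sorted by FACS into six bins by GFP to DsRed ratio, PSI derived from sequencing read proportions per bin multiplied by bin number.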

Protein stability index, by site and new letter:
R21: E 3.17; T 2.23; A 2.52; M 3.63; P 2.7; G 2.9; C 2.23; S 3.25
S22: G 2.42; Y 3.06; Q 2.37; P 2.89; H 1.38
K6: W 2.33; C 3.03; D 2.54; F 2.16; H 1.57; T 3.58; G 3.09
L13: W 4.33; Y 3.47; N 3.26; A 2.67; V 2.79; G 3.42; H 3.83
S23: F 3.54; K 4.11; M 3.18; D 3.09; N 2.66; P 2.65; L 4.44; H 2.7; Y 3.04
N10: R 2.74; P 2.77; T 2.17; I 3.4; M 2.39; L 2.39; A 1.64; Y 3.04; S 2.35
K1: V 2.73; N 2.13; M 2.54; Q 1.99; W 2.09; S 2.88; F 2.11; E 1.97; I 4.17; G 1.81
Y17: L 2.84; E 3.39; N 3.09; P 5.8; D 4.52; Q 4.09; V 3.37
T7: M 2.41; Q 2.66; N 3.33; W 2.88
K2: S 2.12; D 2.65; I 3.63; M 2.54; R 2.03; N 2.56
V19: Y 3.35; P 2.88; C 3.26; I 3.13; K 2.02; L 3.11; E 3.84; T 2.72; F 2.42
Q8: G 2.28; D 3.23; R 2.39; C 3.34; Y 2.02; S 2.69; F 3.67; W 3.29; N 2.89; E 1.69; P 2.94; M 1.89
Q4: E 1.68; V 3.42; I 3.18; L 3.69; S 1.13; D 4.69
D15: V 2.72; H 2.42; E 4.29; F 2.74; P 3.1; L 2.87; Q 2.36; N 2.92; G 3.23; T 3.5; M 2.43
T14: G 2.68; D 4.21; Y 2.65
K12: M 2.55; N 2.81; F 1.93; G 2.76; Y 3; E 3.35; P 2.97
P18: R 2.54; N 1.86; D 3.38; W 3.18; I 2.66; L 3.36
F16: Q 1.76; T 3.17; G 2.74; S 3.07; H 2.33; E 4.51; N 4.28
R20: N 2.83; L 2.32; S 2; V 3.67; G 3.43
R24: N 2.76; C 3.61; Q 1.06; H 2.54; F 2.57
A3: L 3.96; W 2.33; T 2.43; F 2.93; V 3.41; K 2.72; Q 2.4; N 3.12
G5: A 1.87; I 1.68; N 2.53; S 2.62
R11: P 2.61; G 1.5; N 2.86; V 1.86; D 3.45
Q9: L 2.65; C 3.93; R 2.67; H 4.29; S 2.36; E 3.12; K 3.66

Source: the supplement of paper PMC10567573
